Data published in patent US20240116985A1 (published 2024).
Starred links: 1 amine or outer side, 2 acyl side, 3 side chain; linkers in the order of their positions; H or OH if unused. Positions of bridges follow the written chain, without caps; N, C: chain ends. Non-standard residues stand in square brackets, D forms with d. Primed or numbered codes have the meaning given here. PyrS2″ = (S)-3-amino-1-((pent-4-en-1-yloxy)carbonyl)pyrrolidine-3-carboxylic acid (stapling residue), C=CCCCOC(=O)N1CC[C@@](N[*:1])(C(=O)[*:2])C1; B5(4) = 2,2-bis(4-pentenyl)glycine = 2-amino-2-(pent-4-en-1-yl)hept-6-enoic acid (stitching residue), C=CCCCC(CCCC=C)(N[*:1])C(=O)[*:2]; B5(3) = 2,2-bis(4-pentenyl)glycine (stitching residue), C=CCCCC(CCCC=C)(N[*:1])C(=O)[*:2]; Phe(3-COOH) = N[C@@H](Cc1cccc(C(=O)O)c1)C(=O)O; 2F3MeF = Cc1cccc(C[C@H](N[*:1])C(=O)[*:2])c1F; Phe(2-CF3) = N[C@@H](Cc1ccccc1C(F)(F)F)C(=O)O; Phe(2-Cl) = N[C@@H](Cc1ccccc1Cl)C(=O)O; Met(O2) = CS(=O)(=O)CC[C@H](N)C(=O)O; Bta = N[C@@H](Cc1csc2ccccc12)C(=O)O; Lys(iPr) = CC(C)NCCCC[C@H](N)C(=O)O; αAllylPro = C=CC[C@@]1(C(=O)O)CCCN1; tBuAla = CC(C)(C)C[C@H](N)C(=O)O; 3Thi = N[C@@H](Cc1ccsc1)C(=O)O; Cha = N[C@@H](CC1CCCCC1)C(=O)O; PyrS2(4) = not defined here; hSer = N[C@@H](CCO)C(=O)O; Nle = CCCC[C@H](N)C(=O)O

T1: B-cat-Halo (beta-catenin HaloTag construct expressed in HEK293 cells) (UniProt P35222 1-781)
T1 sequence (looked up): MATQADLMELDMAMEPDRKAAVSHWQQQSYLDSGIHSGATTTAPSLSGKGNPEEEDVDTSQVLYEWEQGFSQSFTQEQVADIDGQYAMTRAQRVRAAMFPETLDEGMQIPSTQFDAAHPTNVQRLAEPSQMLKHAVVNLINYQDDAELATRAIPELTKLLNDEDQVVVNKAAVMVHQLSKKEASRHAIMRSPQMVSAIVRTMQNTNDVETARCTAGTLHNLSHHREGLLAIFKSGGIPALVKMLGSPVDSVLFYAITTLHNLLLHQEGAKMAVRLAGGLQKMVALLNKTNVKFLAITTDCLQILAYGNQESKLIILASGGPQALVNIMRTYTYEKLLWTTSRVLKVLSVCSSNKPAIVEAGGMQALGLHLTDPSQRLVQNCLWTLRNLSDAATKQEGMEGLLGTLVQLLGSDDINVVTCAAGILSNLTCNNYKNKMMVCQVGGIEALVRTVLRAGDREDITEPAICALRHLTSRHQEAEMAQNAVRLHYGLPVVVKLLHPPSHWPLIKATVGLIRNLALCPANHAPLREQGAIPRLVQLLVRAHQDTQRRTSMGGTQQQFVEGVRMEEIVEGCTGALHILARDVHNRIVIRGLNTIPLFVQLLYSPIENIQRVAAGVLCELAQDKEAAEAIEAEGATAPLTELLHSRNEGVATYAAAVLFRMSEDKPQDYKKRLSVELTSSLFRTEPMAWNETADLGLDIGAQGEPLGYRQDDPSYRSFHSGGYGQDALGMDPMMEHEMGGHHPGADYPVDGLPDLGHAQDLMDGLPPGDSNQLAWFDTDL

T2: Bcat-Halo (UniProt P35222 1-781)
T2 sequence (looked up): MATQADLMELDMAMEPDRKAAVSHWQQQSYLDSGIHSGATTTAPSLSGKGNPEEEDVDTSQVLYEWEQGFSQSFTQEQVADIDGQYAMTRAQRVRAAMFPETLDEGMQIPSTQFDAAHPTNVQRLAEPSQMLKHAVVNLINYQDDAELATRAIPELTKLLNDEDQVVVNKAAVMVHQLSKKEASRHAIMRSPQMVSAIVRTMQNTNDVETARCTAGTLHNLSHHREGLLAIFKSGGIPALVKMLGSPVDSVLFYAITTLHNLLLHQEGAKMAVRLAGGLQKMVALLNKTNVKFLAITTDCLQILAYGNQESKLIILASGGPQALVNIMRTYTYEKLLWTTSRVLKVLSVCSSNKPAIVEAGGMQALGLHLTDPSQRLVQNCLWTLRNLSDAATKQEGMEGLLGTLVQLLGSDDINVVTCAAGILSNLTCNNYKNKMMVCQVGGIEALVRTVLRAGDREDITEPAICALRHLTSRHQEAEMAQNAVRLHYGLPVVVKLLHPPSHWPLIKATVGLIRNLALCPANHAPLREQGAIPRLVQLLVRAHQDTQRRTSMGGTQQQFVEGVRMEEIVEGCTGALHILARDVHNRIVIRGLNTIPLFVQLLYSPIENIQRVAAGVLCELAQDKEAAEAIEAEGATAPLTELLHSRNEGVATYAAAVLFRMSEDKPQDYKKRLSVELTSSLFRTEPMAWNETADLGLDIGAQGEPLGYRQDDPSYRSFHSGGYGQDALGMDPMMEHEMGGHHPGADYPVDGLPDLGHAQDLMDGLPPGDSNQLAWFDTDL

T3: B-cat-Halo (UniProt P35222 1-781, HaloTag NanoBRET 618 Ligand bound in the assay)
T3 sequence (looked up): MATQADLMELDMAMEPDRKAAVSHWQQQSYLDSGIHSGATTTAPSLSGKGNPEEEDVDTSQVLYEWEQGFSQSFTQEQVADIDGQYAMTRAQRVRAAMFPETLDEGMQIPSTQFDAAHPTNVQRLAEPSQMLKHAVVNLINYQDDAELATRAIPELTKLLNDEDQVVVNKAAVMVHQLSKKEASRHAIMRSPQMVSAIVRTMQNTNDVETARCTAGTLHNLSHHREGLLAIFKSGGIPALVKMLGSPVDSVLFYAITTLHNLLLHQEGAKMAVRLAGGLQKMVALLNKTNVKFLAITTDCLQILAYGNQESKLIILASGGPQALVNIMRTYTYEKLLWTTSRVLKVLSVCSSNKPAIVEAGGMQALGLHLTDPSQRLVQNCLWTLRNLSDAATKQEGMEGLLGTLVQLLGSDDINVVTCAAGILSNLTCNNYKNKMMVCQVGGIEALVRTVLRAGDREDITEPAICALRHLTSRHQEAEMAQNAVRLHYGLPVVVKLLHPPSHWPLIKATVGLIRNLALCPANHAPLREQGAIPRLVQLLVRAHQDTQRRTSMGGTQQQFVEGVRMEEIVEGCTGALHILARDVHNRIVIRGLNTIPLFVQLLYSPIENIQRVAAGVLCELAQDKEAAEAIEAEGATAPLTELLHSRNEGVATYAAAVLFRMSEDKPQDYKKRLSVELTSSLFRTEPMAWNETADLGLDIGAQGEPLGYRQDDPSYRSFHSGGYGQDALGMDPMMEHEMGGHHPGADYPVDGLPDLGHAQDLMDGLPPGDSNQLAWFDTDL


biological target: T1, B-cat-Halo (beta-catenin HaloTag …); experiment: cell-based or functional assay

| NanoBRET Abs IC50 [µM] | Binder |
| --- | --- |
| 11.8 | Ac-[αAllylPro]D[tBuAla][B5(4)]D[Phe(3-COOH)][Met(O2)]AFL[PyrS2″][3Thi][Bta]A-NH2 (staple 1-4, 4-11) [I-2064] |
| 10.5 | Ac-[αAllylPro]D[tBuAla][B5(4)]D[Phe(3-COOH)]QAFL[PyrS2(4)][3Thi][Bta]V-NH2 (staple 1-4, 4-11; reading uncertain; also: printed as Ac-PL3-Asp-Npg-B5-Asp-3COOHF-Gln-Ala-Phe-Leu-PyrS2-3Thi-BztA-Val-NH2) [I-2055] |
| 4.8 | Ac-[αAllylPro]D[tBuAla][B5(4)]D[Phe(3-COOH)]SAFL[PyrS2″][Phe(2-CF3)][Bta]A-NH2 (staple 1-4, 4-11) [I-2059] |
| 3.5 | Ac-[αAllylPro]D[tBuAla][B5(4)]D[Phe(3-COOH)]AAFL[PyrS2″][Phe(2-CF3)][Bta][Met(O2)]-NH2 (staple 1-4, 4-11) [I-2063] |
| 9.6 | Ac-[αAllylPro]D[tBuAla][B5(4)]D[Phe(3-COOH)]TAFL[PyrS2″][Phe(2-CF3)][Bta]A-NH2 (staple 1-4, 4-11) [I-2060] |
| > 20 | Ac-[αAllylPro]N[Cha][B5(4)]DQ[Lys(iPr)]AFN[PyrS2″]F[Bta]A-NH2 (staple 1-4, 4-11) [I-2065] |
| > 20 | Ac-[αAllylPro]N[Cha][B5(4)]DQQAFN[PyrS2″]F[Bta]A-NH2 (staple 1-4, 4-11) [I-2070] |
| 3.9 | Ac-[αAllylPro]D[tBuAla][B5(4)]D[Phe(3-COOH)]NAFL[PyrS2″][Phe(2-CF3)][Bta]A-NH2 (staple 1-4, 4-11) [I-2058] |
| 5 | Ac-[αAllylPro]D[tBuAla][B5(3)]D[Phe(3-COOH)]QAFA[PyrS2(4)][3Thi][Bta]A-NH2 (staple 1-4, 4-11; reading uncertain; also: printed as Ac-PL3-Asp-Npg-B5-Asp-3COOHF-Gln-Ala-Phe-Ala-PyrS2-3Thi-BztA-Ala-NH2) [I-2053] |
| 2.4 | Ac-[αAllylPro]D[tBuAla][B5(4)]D[Phe(3-COOH)]QAFV[PyrS2″][3Thi][Bta]A-NH2 (staple 1-4, 4-11) [I-2054] |
| 3 | Ac-[αAllylPro]D[tBuAla][B5(4)]D[Phe(3-COOH)]AAFL[PyrS2″][Phe(2-Cl)][Bta][Met(O2)]-NH2 (staple 1-4, 4-11) [I-2062] |
| > 20 | Ac-[αAllylPro]N[Cha][B5(4)]DQHAFN[PyrS2″]F[Bta]A-NH2 (staple 1-4, 4-11) [I-2069] |
| 8.3 | Ac-[αAllylPro]D[tBuAla][B5(3)]D[Phe(3-COOH)]TAFL[PyrS2″][3Thi][Bta]A-NH2 (staple 1-4, 4-11) [I-2051] |
| 6.5 | Ac-[αAllylPro]D[tBuAla][B5(4)]D[Phe(3-COOH)]QAFL[PyrS2″][3Thi][Bta]L-NH2 (staple 1-4, 4-11) [I-2056] |
| 6 | Ac-[αAllylPro]D[tBuAla][B5(3)]D[Phe(3-COOH)]QAFF[PyrS2″][3Thi][Bta]A-NH2 (staple 1-4, 4-11) [I-2052] |
| > 20 | Ac-[αAllylPro]N[Cha][B5(4)]DQQAFN[PyrS2″]F[Bta][hSer]-NH2 (staple 1-4, 4-11) [I-2067] |
| > 20 | Ac-[αAllylPro]N[Cha][B5(4)]DQ[Lys(iPr)]AFN[PyrS2″]F[Bta]F-NH2 (staple 1-4, 4-11) [I-2068] |

biological target: T2, Bcat-Halo; experiment: cell-based or functional assay

| NanoBRET Abs IC50 [µM] | Binder |
| --- | --- |
| 6.2 | Ac-[αAllylPro]D[tBuAla][B5(4)]D[Phe(3-COOH)]AAFL[PyrS2″][Phe(2-CF3)][Bta][dA]-NH2 (staple 1-4, 4-11) [I-2091] |
| 10.5 | Ac-[αAllylPro]D[tBuAla][B5(4)]D[Phe(3-COOH)]AAFF[PyrS2″][2F3MeF][Bta][dA]-NH2 (staple 1-4, 4-11) [I-2095] |
| 5 | Ac-[αAllylPro]D[tBuAla][B5(4)]D[Phe(3-COOH)]AAFF[PyrS2″][Phe(2-CF3)][Bta][dQ]-NH2 (staple 1-4, 4-11) [I-2093] |
| 4.4 | Ac-[αAllylPro]D[tBuAla][B5(4)]D[Phe(3-COOH)]AAFL[PyrS2″][3Thi][Bta][dQ]-NH2 (staple 1-4, 4-11) [I-2088] |
| 5.9 | Ac-[αAllylPro]D[tBuAla][B5(4)]D[Phe(3-COOH)]AAFL[PyrS2(4)][3Thi][Bta][dA]-NH2 (staple 1-4, 4-11; reading uncertain) [I-2090] |
| 9.7 | Ac-[αAllylPro]D[tBuAla][B5(4)]D[Phe(3-COOH)]AAFF[PyrS2(4)][3Thi][Bta][dA]-NH2 (staple 1-4, 4-11; reading uncertain) [I-2094] |
| 4.4 | Ac-[αAllylPro]D[tBuAla][B5(4)]D[Phe(3-COOH)]AAFF[PyrS2″][3Thi][Bta][dQ]-NH2 (staple 1-4, 4-11) [I-2092] |
| 2.9 | Ac-[αAllylPro]D[tBuAla][B5(4)]D[Phe(3-COOH)]AAFL[PyrS2(4)][2F3MeF][Bta][dQ]-NH2 (staple 1-4, 4-11; reading uncertain) [I-2089] |

biological target: T3, B-cat-Halo; experiment: cell-based or functional assay

| NanoBRET Abs IC50 [µM] | Binder |
| --- | --- |
| 4.5 | Ac-[αAllylPro]D[tBuAla][B5(4)]D[Phe(3-COOH)]AAF[Me2Gln][PyrS2″][2F3MeF][Bta][Me2Gln]-NH2 (staple 1-4, 4-11; not fully specified; printed as Ac-PL3-Asp-Npg-B5-Asp-3COOHF-Ala-Ala-Phe-Me2Gln-PyrS2-2F3MeF-BztA-Me2Gln-NH2) [I-2536] |
| 3.7 | Ac-[αAllylPro]D[tBuAla][B5(4)]D[Phe(3-COOH)]AAF[Me2Gln][PyrS2″][2F3MeF][Bta][Me2Gln]-NH2 (staple 1-4, 4-11; not fully specified; printed as Ac-PL3-Asp-Npg-B5-Asp-3COOHF-Ala-Ala-Phe-Me2Gln-PyrS2-2F3MeF-BztA-Me2Gln-NH2) [I-2535] |
| 6.2 | Ac-[αAllylPro]D[tBuAla][B5(4)]D[Phe(3-COOH)]AAF[Nle][PyrS2″][2F3MeF][Bta][Me2Gln]-NH2 (staple 1-4, 4-11) [I-2533] |
| 2.9 | Ac-[αAllylPro]D[tBuAla][B5(4)]D[Phe(3-COOH)]AAF[MorphGln][PyrS2″][2F3MeF][Bta][Me2Gln]-NH2 (staple 1-4, 4-11; not fully specified; printed as Ac-PL3-Asp-Npg-B5-Asp-3COOHF-Ala-Ala-Phe-MorphGln-PyrS2-2F3MeF-BztA-Me2Gln-NH2) [I-2537] |
| 4.4 | Ac-[αAllylPro]D[tBuAla][B5(4)]D[Phe(3-COOH)]AAFF[PyrS2″][Phe(2-CF3)][Bta][Me2Gln]-NH2 (staple 1-4, 4-11) [I-2534] |
